Source: paper PMC5201023, “An unconventional interaction between Dis1/TOG and Mal3/EB1 in fission yeast promotes the fidelity of chromosome segregation” (Journal of Cell Science, 2016)

T1: Dis1 C1–eGFP (amino acids 520–882) (Schizosaccharomyces pombe, UniProt Q09933 520-882)
T1 construct: source: bacterially expressed, purified (as the other Dis1–eGFP constructs)
T1 sequence (looked up): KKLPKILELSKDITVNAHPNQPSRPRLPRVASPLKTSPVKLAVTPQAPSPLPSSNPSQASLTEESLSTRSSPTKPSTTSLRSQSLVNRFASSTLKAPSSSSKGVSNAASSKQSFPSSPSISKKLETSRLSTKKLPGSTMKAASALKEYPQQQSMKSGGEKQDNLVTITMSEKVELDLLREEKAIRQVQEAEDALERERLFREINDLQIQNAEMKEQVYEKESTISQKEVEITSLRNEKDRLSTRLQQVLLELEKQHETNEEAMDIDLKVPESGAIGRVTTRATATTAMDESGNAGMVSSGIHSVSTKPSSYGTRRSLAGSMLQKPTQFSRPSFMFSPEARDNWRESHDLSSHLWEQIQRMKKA

T2: Dis1–HA (full-length Dis1 with a hemagglutinin tag at its C-terminus) (Schizosaccharomyces pombe, UniProt Q09933 1-882)
T2 construct: Dis1, fission yeast (S. pombe) member of the XMAP215/TOG family; cDNA optimised for E. coli codons; also called recombinant Dis1 with an HA tag; source: bacterially expressed, purified (IgG Sepharose, Precision protease); not shown: HA, C-terminal, kept
T2 sequence (looked up): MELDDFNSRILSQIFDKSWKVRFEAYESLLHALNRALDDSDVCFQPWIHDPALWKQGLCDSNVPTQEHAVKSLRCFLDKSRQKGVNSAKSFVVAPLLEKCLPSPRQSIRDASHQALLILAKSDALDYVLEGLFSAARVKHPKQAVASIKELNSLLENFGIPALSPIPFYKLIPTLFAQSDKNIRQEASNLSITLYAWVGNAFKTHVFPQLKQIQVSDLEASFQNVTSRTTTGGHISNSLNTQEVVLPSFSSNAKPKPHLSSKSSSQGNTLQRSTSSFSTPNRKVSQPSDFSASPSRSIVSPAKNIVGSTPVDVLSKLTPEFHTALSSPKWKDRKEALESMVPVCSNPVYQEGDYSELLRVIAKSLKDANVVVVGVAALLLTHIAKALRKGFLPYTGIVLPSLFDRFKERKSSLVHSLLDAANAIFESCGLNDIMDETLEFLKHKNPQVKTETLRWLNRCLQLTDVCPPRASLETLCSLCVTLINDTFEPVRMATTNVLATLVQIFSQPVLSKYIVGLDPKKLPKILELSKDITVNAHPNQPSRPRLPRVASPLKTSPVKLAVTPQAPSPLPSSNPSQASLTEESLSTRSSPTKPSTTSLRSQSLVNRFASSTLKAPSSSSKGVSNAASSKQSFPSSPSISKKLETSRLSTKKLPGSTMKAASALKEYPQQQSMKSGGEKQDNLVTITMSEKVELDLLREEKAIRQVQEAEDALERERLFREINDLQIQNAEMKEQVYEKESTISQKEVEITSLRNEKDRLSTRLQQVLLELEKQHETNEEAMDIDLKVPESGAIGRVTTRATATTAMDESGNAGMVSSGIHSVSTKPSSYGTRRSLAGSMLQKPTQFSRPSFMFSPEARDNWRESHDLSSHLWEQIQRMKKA

B1: Dis1–eGFP (full-length Dis1 with eGFP fused to its C-terminus) (natural protein, Schizosaccharomyces pombe, UniProt Q09933 1-882, looked up)
chain: T2 sequence (looked up)
B2: GST–Mal3 (GST-tagged Mal3) (natural protein, Schizosaccharomyces pombe, UniProt Q10113 1-308, looked up)
chain: MSESRQELLAWINQVTSLGLTRIEDCGKGYAMIQIFDSIYQDIPLKKVNFECNNEYQYINNWKVLQQVFLKKGIDKVVDPERLSRCKMQDNLEFVQWAKRFWDQYYPGGDYDALARRGNRGPANTRVMNSSAGATGPSRRRQVSSGSSTPSMTKSSANNNNVSSTANTAAVLRAKQAQQQITSLETQLYEVNETMFGLERERDFYFNKLREIEILVQTHLTTSPMSMENMLERIQAILYSTEDGFELPPDQPADLTTALTDHDTNNVAEEAQMTDLKDSETQRVPSAPDFVHARLQSLEVDDDENITF
notes: Mal3, the sole EB1 homologue of fission yeast; also called Mal3 FL
B3: Mal3 C4 (amino acids 174–247; C-terminal part of the coiled-coil and the EBH domain) (domain or fragment, Schizosaccharomyces pombe, UniProt Q10113 174-247, looked up)
chain: AKQAQQQITSLETQLYEVNETMFGLERERDFYFNKLREIEILVQTHLTTSPMSMENMLERIQAILYSTEDGFEL
notes: Homodimer in both crystal structures; also called Mal3 EBH domain; source: purified (His-tag resin, TEV protease, gel filtration)
B4: GST–Mal3 C1 (amino acids 144–308) (domain or fragment, Schizosaccharomyces pombe, UniProt Q10113 144-308, looked up)
chain: SSGSSTPSMTKSSANNNNVSSTANTAAVLRAKQAQQQITSLETQLYEVNETMFGLERERDFYFNKLREIEILVQTHLTTSPMSMENMLERIQAILYSTEDGFELPPDQPADLTTALTDHDTNNVAEEAQMTDLKDSETQRVPSAPDFVHARLQSLEVDDDENITF
notes: also called C-terminal half
B5: Dis1 peptide (amino acids 833–852) (peptide, UniProt Q09933 833-852, looked up)
peptide: RRSLAGSMLQKPTQFSRPSF
notes: source: spotted on the peptide array membrane
B6: Mal3 (recombinant full-length, without fluorescent protein) (natural protein, Schizosaccharomyces pombe, UniProt Q10113 1-308, looked up)
chain: B2 chain
notes: Mal3, the sole EB1 homologue of fission yeast; also called unlabelled Mal3; source: bacterially expressed, purified (as in Maurer et al., 2011)
B7: Dis1 C2–eGFP (amino acids 690–882) (domain or fragment, Schizosaccharomyces pombe, UniProt Q09933 690-882, looked up)
chain: EKVELDLLREEKAIRQVQEAEDALERERLFREINDLQIQNAEMKEQVYEKESTISQKEVEITSLRNEKDRLSTRLQQVLLELEKQHETNEEAMDIDLKVPESGAIGRVTTRATATTAMDESGNAGMVSSGIHSVSTKPSSYGTRRSLAGSMLQKPTQFSRPSFMFSPEARDNWRESHDLSSHLWEQIQRMKKA
notes: also called Dis1-C2–eGFP (WT); source: bacterially expressed, purified (as the other Dis1–eGFP constructs)

Tests used:
[1] = biological target: B6; experiment: cell-based or functional assay
[2] = biological target: B1; experiment: pull-down; GST pulldown: 1 µM GST, GST–Mal3 or truncated GST–Mal3 on glutathione–Sepharose beads with 0.5 µM Dis1–eGFP proteins; BRB80 with 85 mM KCl, 0.01% Brij-35, 1 mM DTT; 1 h at 4°C; settings: both partners purified
[3] = biological target: B7; experiment: pull-down; Mal3 (amino acids 174–247) mixed with wild-type or LAPA Dis1-C2–eGFP and pulled down by GFP trap beads; settings: both partners purified
[4] = biological target: T1, Dis1 C1–eGFP (amino acids 520–882); experiment: pull-down; GST pulldown: 1 µM GST, GST–Mal3 or truncated GST–Mal3 on glutathione–Sepharose beads with 0.5 µM Dis1–eGFP proteins; BRB80 with 85 mM KCl, 0.01% Brij-35, 1 mM DTT; 1 h at 4°C; settings: both partners purified
[5] = biological target: B2; experiment: pull-down; peptide competition: 1 µM GST–Mal3 on glutathione beads pre-incubated 30 min with Dis1 peptide (0, 0.5, 2.5, 5.0, 50, 100 µM), then 0.5 µM Dis1 C2–eGFP for 1 h; settings: both partners purified
[6] = biological target: T2, Dis1–HA (full-length Dis1 with a …); experiment: SEC; analytical gel filtration on Superose 6 10/300; 25 mM K-HEPES pH 7.5, 200 mM KCl, 1 mM EGTA, 1 mM MgCl2; 5 µM Dis1–eGFP with 10 µM tubulin, or 5 µM Dis1–HA with 20 µM Mal3; settings: both partners purified
[7] = biological target: B1; experiment: TIRF microscopy on dynamic microtubules in vitro; Cy5-labelled MTs grown from immobilised GMPCPP-stabilised seeds; BRB80 with 85 mM KCl, 1 mM GTP, 10 mM β-mercaptoethanol, 0.1% Brij-35, 0.1% methylcellulose; 30±1°C; 10-20 nM Dis1–eGFP proteins with or without 20 nM-1 µM Mal3; settings: both partners purified
[8] = biological target: B6; experiment: as above; settings: both partners purified

Binder: B1
- MT catastrophe frequency with Mal3 and Dis1 together, fold over tubulin alone (Mal3 alone ∼1.9-fold, Dis1 alone no effect) [1]: ~3.8 fold

Binder: B2
- binding result [2]: binds

Binder: B3
- binding result [3]: binds

Binder: B4
- binding result [4]: binds

Binder: B5
- binding result [5]: binds

Binder: B6
- binding result [6]: binds
- binding result [7]: binds

Binder: B7
- binding result [5]: binds
- binding result [8]: binds
